In publication PMC4189797, “Mycoplasma synoviae enolase is a plasminogen/fibronectin binding protein” (BMC Veterinary Research, 2014):

Tested on: O=C(O)[C@@H](CO)OP(=O)(O)O
Test: purified protein
Conditions: 100 mM HEPES, 7.7 mM KCl, 10 mM MgCl2, pH 7.5, 30°C, 2-PGA 0.5, 1.5 and 2.0 mM

## rMsEno (recombinant M. synoviae enolase) (Mycoplasmopsis synoviae 53)
  Km: 1100 µM
